Results as given in patent publication US20250357519.

Tests used:
[1] = molecular target: native equine heart cytochrome c (Sigma C2506), P00004
[2] = molecular target: partially acetylated equine heart cytochrome c (Sigma C4186), P00004
partially acetylated equine heart cytochrome c (Sigma C4186), P00004, sequence (P00004 2-105): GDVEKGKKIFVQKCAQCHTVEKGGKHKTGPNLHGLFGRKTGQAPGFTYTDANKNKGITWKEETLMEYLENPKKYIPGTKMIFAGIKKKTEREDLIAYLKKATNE

native equine heart cytochrome c (Sigma C2506), P00004, sequence (P00004 2-105): as above

B1: Strep-tag II-tagged DvH-FDH2 (recombinant formate dehydrogenase 2 from Desulfovibrio vulgaris Hildenborough, heterodimer of large and small subunit) (protein)
chain 1: MRMPRRTFIKLASASAGALAFAGLGQSLAPTVARAAELKIAKAKVTPSVCCFCAVGCGLLVYTDTQTGRSINIEGDPDHPTNEGTLCPKGASIWQTTERSKRVTKVLYRAPGAAAWEEKSWDWALPRIARKIKETRDATFELTNDKGQTVNRTRGIASVGSAAVDNEEGWLMQAMMRALGLVYIESHARIUHSSTVGALAESYGRGAMTNHWIDLKNSDVILIMGSNAAENHPISFKWVTRAQERGATLIHVDPRFTRTSAKADIHAHIRSGTDIAFFGGLIRYIMENDLFFRQYVVDYTNASYIVGADYGFADGLFTGFDAEKGTYNTKKWAFAADENGMTLKDPTLNDPRCVFQLMKAHYARYDRKTVSDVTGISEEQLATLWSTFASTGKPDRAGTILYAMGQCQHTVGVQNIRALSMIQLLLGNIGIAGGGVNALRGESNVQGTTDISLLCDNLSGYLPTPKASWATFDDYVKGTTPVDKDPKSANWWSNRGKYLASYMKSVYPTASHQDGYLWHPKVDDGKITDYSWLQIFERMSKGGFKGAFVWGQNPCAGGANAGKNRKAMETLDWMVVVNLFENESSLFWKGPGVDPAKVKTEVFFLPACMSVEKGGSIANSGRWLQWREPGPKPMGDSRSDGDIVLDLYDEIRKLYREEKGAFPEPVLALDTDYRTDGKYDHHKVAKTLNGKFLTDVTIGDKTYKAGQQVPGFAMLQADGSTTSGCWIFTGCYTDAGNMMARRDRTQTPEQAAIGLFPNWSYAWPANRRILYNRAAVDMTGKPFDPKRAVIAWNGEKWVGDVPDGGWKPGEKLPFIMIREGRGQLFGPGRVDGPFPEHYEPFESPLESHPFSKQRVNPTALAFSHEPKAVRDKRYPFICTTYRVTEQWQSGTMTRNTGWLKEMQPEGFCEISRELAKELGIANGDAVVLESLRGKVQVVAIVTPRLKPFKVMGEVMHEVGIPWQFGWGQHVGKGDSANLLSPSVGDPNTGIPETKVFMVNLRKA
chain 2: MRPLGSLPQGMRRVSRRHIREAYMNGKTFFIDQTRCTACRGCQAACKQWKKFGSIETRNTGSYQNPPDLGPSTFKLVRFNEVEVDGKLKWLFFPEQCRHCLEPPCKMVADALIPGAIVQDAETGAVLYTEKTKGLDYMEVRSACPYDIPRQDPATGLLTKCNMCIDRVQNGMLPACVKTCPTGTMHFGDRADMLELAQKRLGEVKKRSPAALLADSDLVRVLYLCELAPANYHSHMVAEADTSRIGPFSRRALLRLRPFA
For B1, the “reduction of native equine cytochrome c in air at doubled formate concentration (electronic spectra)” value [1] was “Doubling the formate concentration resulted in near-stoichiometric reduction in air”, the “reduction of native equine cytochrome c in the presence of formate (absorbance at 550 nm), anaerobic” value [1] was “stoichiometric reduction occurred under anaerobic conditions” and the “reduction of native equine cytochrome c in the presence of formate (absorbance at 550 nm), in air” value [1] was ~80% underwent reduction in air. The “reduction of acetylated equine cytochrome c during DvH-FDH2 catalysis (absorbance at 550 nm)” value [2] was “DvH-FDH2 does not reduce acetylated cytochrome c”.
